This note sets out measurements from patent US20260167706A1, “ANTI-ADRENOMEDULLIN (ADM) ANTIBODY OR ANTI-ADM ANTIBODY FRAGMENT OR ANTI-ADM NON-IG SCAFFOLD FOR USE IN THERAPY OR PREVENTION OF SHOCK” (ADRENOMED AG, priority 2022, published 2026).

Assay [1] addresses human recombinant adrenomedullin receptor (CRLR + RAMP3) (human).
For assay [2] the target is unchanged. The source holds these as a separate data set.

In the case of “human ADM 22-52 (from UniProt P35318) (peptide)”, the IC50 (read off the curve); cAMP, % inhibition, 0.67 nM mADM as agonist in assay [1] amounted to 2000 nM. For the same substance, in assay [2], the IC50 (read off the curve); cAMP, % inhibition, 5.63 nM hADM as agonist was determined as 200 nM.
